Literature values in patent publication US20050119762A1, “Hydrogel providing cell-specific ingrowth” (priority 2003, published 2005).

Assays:
[1] = biological target: T1, MMP-2 (Homo sapiens, UniProt P08253)
T1 sequence (P08253 110-660): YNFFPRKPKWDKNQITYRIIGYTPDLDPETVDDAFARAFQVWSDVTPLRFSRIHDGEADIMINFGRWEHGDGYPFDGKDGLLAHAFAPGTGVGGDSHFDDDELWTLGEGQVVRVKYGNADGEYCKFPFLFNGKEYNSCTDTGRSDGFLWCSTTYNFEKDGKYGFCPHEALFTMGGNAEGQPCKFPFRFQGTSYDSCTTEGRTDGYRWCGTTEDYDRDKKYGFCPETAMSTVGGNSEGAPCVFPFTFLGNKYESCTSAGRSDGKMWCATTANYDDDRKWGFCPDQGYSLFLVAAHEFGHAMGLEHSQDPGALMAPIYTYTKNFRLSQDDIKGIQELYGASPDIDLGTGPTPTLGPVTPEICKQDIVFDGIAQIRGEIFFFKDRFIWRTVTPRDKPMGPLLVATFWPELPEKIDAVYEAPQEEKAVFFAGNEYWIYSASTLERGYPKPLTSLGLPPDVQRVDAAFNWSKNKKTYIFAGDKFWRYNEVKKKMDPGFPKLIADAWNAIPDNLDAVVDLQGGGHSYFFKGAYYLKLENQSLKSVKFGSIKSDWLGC

[2] = biological target: T2, MMP-9 (Homo sapiens, UniProt P14780); details: peptides based on phage clones
T2 construct: a recombinant form of the catalytic domain of MMP-9 expressed in HEK 293 cells; host or cells: HEK 293 cells

[3] = biological target: T2, MMP-9; details: phage clones selected by MMP-9; for % Hydrolysis 1: experiment 1; for % Hydrolysis 2: experiment 2
[4] = biological target: T1, MMP-2; details: synthesized peptides, reciprocal plots
[5] = biological target: T1, MMP-2; details: phage substrate clones hydrolysed by activated MMP-2; for % Hydrolysis exp 1: experiment 1; for % Hydrolysis exp 2: experiment 2

T2 sequence (P14780 107-444 limits assumed): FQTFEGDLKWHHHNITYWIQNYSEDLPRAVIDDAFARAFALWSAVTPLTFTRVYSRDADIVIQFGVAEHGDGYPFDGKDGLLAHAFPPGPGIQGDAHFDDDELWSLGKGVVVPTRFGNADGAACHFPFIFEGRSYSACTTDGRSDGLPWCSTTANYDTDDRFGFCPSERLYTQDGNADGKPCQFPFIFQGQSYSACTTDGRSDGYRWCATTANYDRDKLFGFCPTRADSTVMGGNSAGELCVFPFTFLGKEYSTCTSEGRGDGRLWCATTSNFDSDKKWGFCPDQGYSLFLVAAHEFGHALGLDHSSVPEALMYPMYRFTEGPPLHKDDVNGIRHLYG

| Substance | MMP-9 kcat [2] [S^−1] | % Hydrolysis 1 [3] [%] | % Hydrolysis 2 [3] [%] | MMP-2 kcat [4] [s⁻¹] | % Hydrolysis exp 1 [5] [%] | % Hydrolysis exp 2 [5] [%] | also measured |
| --- | --- | --- | --- | --- | --- | --- | --- |
| GCRDSGESLAYYTADRCG |  |  |  |  |  |  | hydrolysis by MMP-2 [1]: sensitive to hydrolysis |
| SG ↓ LKALMITA (SGLKALMITA; peptide substrate based on phage clones) [Peptide A7] | 30 | 79.8 | 76 |  |  |  |  |
| SGAKPRA ↓ LTA (SGAKPRALTA; peptide substrate based on phage clones) [Peptide A3] |  |  |  | 400 |  |  |  |
| SGANISD ↓ LTA (SGANISDLTA; peptide substrate based on phage clones) [Peptide B37] |  |  |  | 353 | 97 | 95 |  |
| SGAPSW ↓ LLTA (SGAPSWLLTA; peptide substrate based on phage clones) [Peptide A13P] |  |  |  | 204 |  |  |  |
| SGAVRW ↓ LLTA (SGAVRWLLTA; peptide substrate based on phage clones) [Peptide A13R] |  |  |  | 28 |  |  |  |
| SGAVSW ↓ LLTA (SGAVSWLLTA; peptide sequence based on phage clones) [Peptide A13] |  | 78.9 | 72 | 105 | 100 | 93 |  |
| SGESLAY ↓ YTA (SGESLAYYTA; peptide substrate based on phage clones) [Peptide B74] |  |  |  | 622 | 81 | 90 |  |
| SGESLRY ↓ YTA (SGESLRYYTA; peptide substrate based on phage clones) [Peptide B74R] |  |  |  | 61 |  |  |  |
| SGESPAY ↓ YTA (SGESPAYYTA; peptide substrate based on phage clones) [Peptide B74P] |  |  |  | 264 |  |  |  |
| SGFGSRY ↓ LTA (SGFGSRYLTA; peptide substrate based on phage clones) [Peptide A19] | 11 | 45 | 50 |  |  |  |  |
| SGHMHAA ↓ LTA (SGHMHAALTA; peptide substrate based on phage clones) [Peptide A21A] |  |  |  | 601 |  |  |  |
| SGHMHKA ↓ LTA (SGHMHKALTA; peptide substrate based on phage clones) [Peptide A21] |  |  |  | 124 | 30 | 49 |  |
| SGKGPRQ ↓ ITA (SGKGPRQITA; peptide substrate based on phage clones) [Peptide C15] | 703 | 100 | 98 |  |  |  |  |
| SGKIPRR ↓ LTA (SGKIPRRLTA; peptide substrate based on phage clones) [Peptide A11m1] | 224 |  |  |  |  |  |  |
| SGKIPRT ↓ ATA (SGKIPRTATA; peptide substrate based on phage clones) [Peptide A11m2] | 9.4 |  |  |  |  |  |  |
| SGKIPRT ↓ LTA (SGKIPRTLTA; peptide substrate based on phage clones) [Peptide A11] | 86.4 | 100 | 100 |  |  |  |  |
| SGLRLAA ↓ ITA (SGLRLAAITA; peptide substrates based on phage clones) [Peptide B49] |  |  |  | 510 | 100 | 100 |  |
| SGLRPAK ↓ STA (SGLRPAKSTA; peptide substrate based on phage clones) [Peptide A18] | 78 | 28.9 | 30 |  |  |  |  |
| SGNRYSS ↓ LTA (SGNRYSSLTA; peptide substrate based on phage clones) [Peptide A34] |  |  |  | 202 | 100 | 100 |  |
| SGPLF ↓ YSVTA (SGPLFYSVTA; peptide substrate based on phage clones) [Peptide A10] | 20 | 100 | 100 |  | 36 | 40 |  |
| SGPRA ↓ VSTTA (SGPRAVSTTA; peptide substrate based on phage clones) [Peptide A6] | 178 | 100 | 99 |  | 30 | 44 |  |
| SGQPHY ↓ LTTA (SGQPHYLTTA; peptide substrate based on phage clones) [Peptide B1] | 9 | 79.6 | 85 |  |  |  |  |
| SGRR ↓ LIHHTA (SGRRLIHHTA; peptide substrates based on phage clones) [Peptide C11] |  | 94.9 | 74 |  |  |  |  |
| SGRR ↓ LLSRTA (SGRRLLSRTA; peptide substrates based on phage clones) [Peptide A16] |  | 20.2 | 11 |  |  |  |  |
| SGRSLRR ↓ LTA (SGRSLRRLTA; peptide substrate based on phage clones) [Peptide C9R] |  |  |  | 302 |  |  |  |
| SGRSLSR ↓ LTA (SGRSLSRLTA; peptide substrate based on phage clones) [Peptide C9] |  |  |  | 740 | 100 | 100 |  |
